Laboratory results reported in patent US20180298083A1.
Read-outs that look alike come from different tables or passages of the source.

Columns and labels:
T250-4 (HIV-1) [1] = target: T250-4 (HIV-1)
6631.V3.C10 (HIV-1) [2] = target: 6631.V3.C10 (HIV-1)
[3] = target: gp120 of X2088 (HIV-1 strain X2088.c9)
6631.V3.C10 (HIV-1) [4] = target: 6631.V3.C10 (HIV-1); remark: listed apart in the source
CAAN.A2 (HIV-1) [5] = target: CAAN.A2 (HIV-1)
CentrB, centromere B = assay: Luminex AtheNA Multi-Lyte ANA test
Histone = assay: Luminex AtheNA Multi-Lyte ANA test
Jo1 antigen = assay: Luminex AtheNA Multi-Lyte ANA test
RNP, ribonucleoprotein = assay: Luminex AtheNA Multi-Lyte ANA test
[6] = target: SSA, Sjogren's syndrome antigen A; assay: Luminex AtheNA Multi-Lyte ANA test
[7] = target: SSB, Sjogren syndrome antigen B (Homo sapiens (Human)) (UniProt P05455); assay: Luminex AtheNA Multi-Lyte ANA test
Scl 70, scleroderma 70 = assay: Luminex AtheNA Multi-Lyte ANA test
Sm, Smith antigen = assay: Luminex AtheNA Multi-Lyte ANA test
6631.V3.C10 (HIV-1) [8] = target: 6631.V3.C10 (HIV-1); remark: listed apart in the source
CAAN.A2 (HIV-1) [9] = target: CAAN.A2 (HIV-1); remark: listed apart in the source
T250-4 (HIV-1) [10] = target: T250-4 (HIV-1); remark: listed apart in the source
[11] = target: gp120 of X2088 (HIV-1 strain X2088.c9); remark: listed apart in the source
D167N (HIV-1) = assay: gp120 capture ELISA
D279A (HIV-1) = assay: gp120 capture ELISA
D368A (HIV-1) = assay: gp120 capture ELISA
D457A (HIV-1) = assay: gp120 capture ELISA
D474A (HIV-1) = assay: gp120 capture ELISA
E370A (HIV-1) = assay: gp120 capture ELISA
G366A (HIV-1) = assay: gp120 capture ELISA
G367A (HIV-1) = assay: gp120 capture ELISA
G471A (HIV-1) = assay: gp120 capture ELISA
G472A (HIV-1) = assay: gp120 capture ELISA
G473A (HIV-1) = assay: gp120 capture ELISA
I371A (HIV-1) = assay: gp120 capture ELISA
I467A (HIV-1) = assay: gp120 capture ELISA
K282A (HIV-1) = assay: gp120 capture ELISA
M373A (HIV-1) = assay: gp120 capture ELISA
M475A (HIV-1) = assay: gp120 capture ELISA
N197T (HIV-1) = assay: gp120 capture ELISA
N262A (HIV-1) = assay: gp120 capture ELISA
N280A (HIV-1) = assay: gp120 capture ELISA
N332A (HIV-1) = assay: gp120 capture ELISA
P369A (HIV-1) = assay: gp120 capture ELISA
R469A (HIV-1) = assay: gp120 capture ELISA
R476A (HIV-1) = assay: gp120 capture ELISA
S365A (HIV-1) = assay: gp120 capture ELISA
T283A (HIV-1) = assay: gp120 capture ELISA
V372A (HIV-1) = assay: gp120 capture ELISA
[12] = target: monomeric gp120^JRCSF (HIV-1 strain JRCSF) (UniProt P20871); assay: gp120 capture ELISA
[13] = target: gp120 Resurfaced Stabilized Core (RSC3); assay: ELISA on coated RSC3

Chain of CentrB, centromere B (P07199 2-599): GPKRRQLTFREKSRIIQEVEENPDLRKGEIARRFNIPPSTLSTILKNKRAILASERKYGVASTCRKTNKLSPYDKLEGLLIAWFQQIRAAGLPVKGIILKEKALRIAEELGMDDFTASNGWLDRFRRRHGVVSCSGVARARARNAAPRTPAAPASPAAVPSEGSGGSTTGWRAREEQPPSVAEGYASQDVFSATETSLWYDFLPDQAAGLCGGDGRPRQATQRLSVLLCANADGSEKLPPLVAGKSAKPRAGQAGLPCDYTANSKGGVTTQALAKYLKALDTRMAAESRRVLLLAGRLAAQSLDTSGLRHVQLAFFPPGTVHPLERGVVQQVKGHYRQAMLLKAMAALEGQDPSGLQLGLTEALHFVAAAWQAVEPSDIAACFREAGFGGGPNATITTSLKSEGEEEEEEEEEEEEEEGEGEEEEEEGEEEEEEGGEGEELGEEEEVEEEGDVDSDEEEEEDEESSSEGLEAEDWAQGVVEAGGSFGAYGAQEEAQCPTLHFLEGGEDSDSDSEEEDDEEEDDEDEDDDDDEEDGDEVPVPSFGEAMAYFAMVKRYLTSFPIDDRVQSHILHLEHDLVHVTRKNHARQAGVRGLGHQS
Chain of SSB, Sjogren syndrome antigen B (Homo sapiens (Human)) (P05455 whole entry): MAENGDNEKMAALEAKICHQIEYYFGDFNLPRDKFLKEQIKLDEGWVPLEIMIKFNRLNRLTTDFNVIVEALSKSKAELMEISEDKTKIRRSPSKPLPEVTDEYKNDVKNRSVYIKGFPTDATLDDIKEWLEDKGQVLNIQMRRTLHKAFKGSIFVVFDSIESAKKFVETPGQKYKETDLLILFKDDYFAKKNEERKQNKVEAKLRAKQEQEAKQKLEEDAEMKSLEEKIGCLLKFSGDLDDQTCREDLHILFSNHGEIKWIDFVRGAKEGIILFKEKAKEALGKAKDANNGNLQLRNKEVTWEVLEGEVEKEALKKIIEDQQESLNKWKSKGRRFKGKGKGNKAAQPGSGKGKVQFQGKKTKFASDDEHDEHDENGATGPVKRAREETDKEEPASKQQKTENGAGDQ

## N6 with CDRH3 of VRC01 (antibody)
T250-4 (HIV-1) [1]
  neutralisation IC50: 4.52 µg/mL

## N6 with FRL3 of VRC01 (antibody)
6631.V3.C10 (HIV-1) [2]
  neutralisation IC50: > 50 µg/mL
[3]
  neutralisation IC50: > 50 µg/mL

## N6 GGG60-62AHS VRC27 (antibody)
6631.V3.C10 (HIV-1) [4]
  neutralisation IC50: 0.089 µg/mL

## VRC01 G54YHC (antibody)
CAAN.A2 (HIV-1) [5]
  neutralisation IC50: 1.31 µg/mL

## synagis (antibody)
CentrB, centromere B
  Luminex reactivity (unit not given): 2
Histone
  Luminex reactivity (unit not given): 3
Jo1 antigen
  Luminex reactivity (unit not given): 2.5
RNP, ribonucleoprotein
  Luminex reactivity (unit not given): 1.3
[6]
  Luminex reactivity (unit not given): 3.3
[7]
  Luminex reactivity (unit not given): 4.8
Scl 70, scleroderma 70
  Luminex reactivity (unit not given): 2
Sm, Smith antigen
  Luminex reactivity (unit not given): 2.3

## N6 with CDRL3 of VRC01 (antibody)
6631.V3.C10 (HIV-1) [2]
  neutralisation IC50: 0.139 µg/mL
[3]
  neutralisation IC50: 0.125 µg/mL

## 12A21 (antibody)
6631.V3.C10 (HIV-1) [8]
  neutralisation IC50: 2.37 µg/mL
CAAN.A2 (HIV-1) [9]
  neutralisation IC50: 0.539 µg/mL
T250-4 (HIV-1) [10]
  neutralisation IC50: > 50 µg/mL
[11]
  neutralisation IC50: > 50 µg/mL
D167N (HIV-1)
  Binding affinity relative to WT (%): 108%
D279A (HIV-1)
  Binding affinity relative to WT (%): 188%
D368A (HIV-1)
  Binding affinity relative to WT (%): 30%
D457A (HIV-1)
  Binding affinity relative to WT (%): 23%
D474A (HIV-1)
  Binding affinity relative to WT (%): 19%
E370A (HIV-1)
  Binding affinity relative to WT (%): 16%
G366A (HIV-1)
  Binding affinity relative to WT (%): 6%
G367A (HIV-1)
  Binding affinity relative to WT (%): 2%
G471A (HIV-1)
  Binding affinity relative to WT (%): 162%
G472A (HIV-1)
  Binding affinity relative to WT (%): 97%
G473A (HIV-1)
  Binding affinity relative to WT (%): 53%
I371A (HIV-1)
  Binding affinity relative to WT (%): 17%
I467A (HIV-1)
  Binding affinity relative to WT (%): 49%
K282A (HIV-1)
  Binding affinity relative to WT (%): 29%
M373A (HIV-1)
  Binding affinity relative to WT (%): 63%
M475A (HIV-1)
  Binding affinity relative to WT (%): 76%
N197T (HIV-1)
  Binding affinity relative to WT (%): 131%
N262A (HIV-1)
  Binding affinity relative to WT (%): 167%
N280A (HIV-1)
  Binding affinity relative to WT (%): 174%
N332A (HIV-1)
  Binding affinity relative to WT (%): 206%
P369A (HIV-1)
  Binding affinity relative to WT (%): 122%
R469A (HIV-1)
  Binding affinity relative to WT (%): 66%
R476A (HIV-1)
  Binding affinity relative to WT (%): 73%
S365A (HIV-1)
  Binding affinity relative to WT (%): 454%
T283A (HIV-1)
  Binding affinity relative to WT (%): 68%
V372A (HIV-1)
  Binding affinity relative to WT (%): 36%
[12]
  Binding affinity relative to WT (%): 100%

## VRC08 N6CDRH3 (antibody)
CAAN.A2 (HIV-1) [5]
  neutralisation IC50: > 50 µg/mL

## VRC-PG04 (antibody)
D167N (HIV-1)
  Binding affinity relative to WT (%): 42%
D279A (HIV-1)
  Binding affinity relative to WT (%): 247%
D368A (HIV-1)
  Binding affinity relative to WT (%): 12%
D457A (HIV-1)
  Binding affinity relative to WT (%): 0%
D474A (HIV-1)
  Binding affinity relative to WT (%): 0%
E370A (HIV-1)
  Binding affinity relative to WT (%): 20%
G366A (HIV-1)
  Binding affinity relative to WT (%): 17%
G367A (HIV-1)
  Binding affinity relative to WT (%): 19%
G471A (HIV-1)
  Binding affinity relative to WT (%): 64%
G472A (HIV-1)
  Binding affinity relative to WT (%): 38%
G473A (HIV-1)
  Binding affinity relative to WT (%): 34%
I371A (HIV-1)
  Binding affinity relative to WT (%): 21%
I467A (HIV-1)
  Binding affinity relative to WT (%): 40%
K282A (HIV-1)
  Binding affinity relative to WT (%): 12%
M373A (HIV-1)
  Binding affinity relative to WT (%): 44%
M475A (HIV-1)
  Binding affinity relative to WT (%): 90%
N197T (HIV-1)
  Binding affinity relative to WT (%): 39%
N262A (HIV-1)
  Binding affinity relative to WT (%): 14%
N280A (HIV-1)
  Binding affinity relative to WT (%): 12%
N332A (HIV-1)
  Binding affinity relative to WT (%): 31%
P369A (HIV-1)
  Binding affinity relative to WT (%): 44%
R469A (HIV-1)
  Binding affinity relative to WT (%): 6%
R476A (HIV-1)
  Binding affinity relative to WT (%): 84%
S365A (HIV-1)
  Binding affinity relative to WT (%): 34%
T283A (HIV-1)
  Binding affinity relative to WT (%): 83%
V372A (HIV-1)
  Binding affinity relative to WT (%): 15%

## 12A21 heavy chain with N6 light chain (antibody)
CAAN.A2 (HIV-1) [9]
  neutralisation IC50: 11 µg/mL

## N6 with CDRH1 of VRC01 (antibody)
6631.V3.C10 (HIV-1) [2]
  neutralisation IC50: > 50 µg/mL
T250-4 (HIV-1) [1]
  neutralisation IC50: > 50 µg/mL
[3]
  neutralisation IC50: 2.08 µg/mL

## N6 with FRH3 of VRC01 (antibody)
6631.V3.C10 (HIV-1) [2]
  neutralisation IC50: 0.152 µg/mL

## b12 (antibody)
[13]
  EC50 (read off the curve): 0.01 µg/mL
